Reference: IntAct's records for PubMed 29892012

B1: Coiled-coil alpha-helical rod protein 1 (Homo sapiens), Q8TD31 (parent)
chain: MFPPSGSTGLIPPSHFQARPLSTLPRMAPTWLSDIPLVQPPGHQDVSERRLDTQRPQVTMWERDVSSDRQEPGRRGRSWGLEGSQALSQQAEVIVRQLQELRRLEEEVRLLRETSLQQKMRLEAQAMELEALARAEKAGRAEAEGLRAALAGAEVVRKNLEEGSQRELEEVQRLHQEQLSSLTQAHEEALSSLTSKAEGLEKSLSSLETRRAGEAKELAEAQREAELLRKQLSKTQEDLEAQVTLVENLRKYVGEQVPSEVHSQTWELERQKLLETMQHLQEDRDSLHATAELLQVRVQSLTHILALQEEELTRKVQPSDSLEPEFTRKCQSLLNRWREKVFALMVQLKAQELEHSDSVKQLKGQVASLQEKVTSQSQEQAILQRSLQDKAAEVEVERMGAKGLQLELSRAQEARRRWQQQTASAEEQLRLVVNAVSSSQIWLETTMAKVEGAAAQLPSLNNRLSYAVRKVHTIRGLIARKLALAQLRQESCPLPPPVTDVSLELQQLREERNRLDAELQLSARLIQQEVGRAREQGEAERQQLSKVAQQLEQELQQTQESLASLGLQLEVARQGQQESTEEAASLRQELTQQQELYGQALQEKVAEVETRLREQLSDTERRLNEARREHAKAVVSLRQIQRRAAQEKERSQELRRLQEEARKEEGQRLARRLQELERDKNLMLATLQQEGLLSRYKQQRLLTVLPSLLDKKKSVVSSPRPPECSASAPVAAAVPTRESIKGSLSVLLDDLQDLSEAISKEEAVCQGDNLDRCSSSNPQMSS
partner: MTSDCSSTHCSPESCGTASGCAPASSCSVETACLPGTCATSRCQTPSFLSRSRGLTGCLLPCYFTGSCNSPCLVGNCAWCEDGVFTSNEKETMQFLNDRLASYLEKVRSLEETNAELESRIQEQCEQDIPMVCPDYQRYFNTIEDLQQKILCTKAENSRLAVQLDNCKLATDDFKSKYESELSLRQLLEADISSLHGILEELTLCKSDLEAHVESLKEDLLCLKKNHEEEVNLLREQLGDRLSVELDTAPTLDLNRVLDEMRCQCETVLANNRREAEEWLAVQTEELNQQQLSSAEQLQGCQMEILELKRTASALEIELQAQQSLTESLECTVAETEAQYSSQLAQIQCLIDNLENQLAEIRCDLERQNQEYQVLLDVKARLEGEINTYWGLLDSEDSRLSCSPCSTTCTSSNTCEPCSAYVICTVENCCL
B2: Coiled-coil alpha-helical rod protein 1 (Homo sapiens), Q8TD31 (parent)
chain: B1 chain
B3: Coiled-coil alpha-helical rod protein 1 (Homo sapiens), Q8TD31 (parent)
chain: B1 chain
partner: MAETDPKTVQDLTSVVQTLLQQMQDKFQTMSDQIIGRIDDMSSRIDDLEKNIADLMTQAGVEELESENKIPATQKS

Variants of: B1
Conditions: with KRT40, Q6A162

Variant	effect of a mutation on the interaction
W337R	with no effect

Variants of: B2
Conditions: with nutm1_human NUTM1, Q86Y26

Variant	effect of a mutation on the interaction
W337R	disrupting interaction strength

Variants of: B2
Conditions: with tekt1_human TEKT1, Q969V4
Chain of tekt1_human TEKT1, Q969V4 (Q969V4 whole entry): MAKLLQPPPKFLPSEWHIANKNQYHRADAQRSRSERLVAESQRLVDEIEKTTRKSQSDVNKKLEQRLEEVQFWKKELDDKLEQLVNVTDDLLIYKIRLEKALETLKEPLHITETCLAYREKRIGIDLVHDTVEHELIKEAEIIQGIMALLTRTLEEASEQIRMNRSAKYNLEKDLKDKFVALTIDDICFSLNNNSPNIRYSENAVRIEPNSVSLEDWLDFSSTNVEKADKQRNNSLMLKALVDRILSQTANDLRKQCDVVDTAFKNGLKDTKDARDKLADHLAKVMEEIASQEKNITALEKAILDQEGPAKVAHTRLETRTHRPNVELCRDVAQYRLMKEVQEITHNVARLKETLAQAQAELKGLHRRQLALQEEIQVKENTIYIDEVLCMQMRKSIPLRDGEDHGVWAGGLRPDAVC

Variant	effect of a mutation on the interaction
W337R	disrupting interaction strength

Variants of: B2
Conditions: with amol2_human AMOTL2, Q9Y2J4
Chain of amol2_human AMOTL2, Q9Y2J4 (Q9Y2J4 whole entry): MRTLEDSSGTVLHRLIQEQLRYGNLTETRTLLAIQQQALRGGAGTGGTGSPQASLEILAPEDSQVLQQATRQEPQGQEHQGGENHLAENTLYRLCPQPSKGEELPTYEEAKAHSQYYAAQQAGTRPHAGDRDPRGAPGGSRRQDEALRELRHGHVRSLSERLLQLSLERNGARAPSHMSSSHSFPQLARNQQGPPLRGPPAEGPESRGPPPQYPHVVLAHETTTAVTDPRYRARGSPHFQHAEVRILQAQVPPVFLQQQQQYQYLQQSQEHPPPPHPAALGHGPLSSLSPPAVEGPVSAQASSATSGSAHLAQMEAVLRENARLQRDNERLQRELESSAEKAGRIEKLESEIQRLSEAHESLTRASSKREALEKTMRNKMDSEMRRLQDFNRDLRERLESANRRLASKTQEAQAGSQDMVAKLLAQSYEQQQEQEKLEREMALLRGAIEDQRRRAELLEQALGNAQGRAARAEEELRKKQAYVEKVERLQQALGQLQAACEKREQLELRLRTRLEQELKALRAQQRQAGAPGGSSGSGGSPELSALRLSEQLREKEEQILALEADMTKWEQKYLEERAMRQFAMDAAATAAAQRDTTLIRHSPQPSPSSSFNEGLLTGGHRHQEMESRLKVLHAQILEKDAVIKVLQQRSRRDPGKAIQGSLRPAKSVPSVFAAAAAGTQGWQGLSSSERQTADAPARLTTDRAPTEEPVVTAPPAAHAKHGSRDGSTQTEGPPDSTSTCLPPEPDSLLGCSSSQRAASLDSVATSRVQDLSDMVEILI

Variant	effect of a mutation on the interaction
W337R	disrupting interaction strength

Variants of: B2
Conditions: with k1h1_human KRT31, Q15323

Variant	effect of a mutation on the interaction
W337R	with no effect

Variants of: B2
Conditions: with abi2_human ABI2, Q9NYB9
Chain of abi2_human ABI2, Q9NYB9 (Q9NYB9 whole entry): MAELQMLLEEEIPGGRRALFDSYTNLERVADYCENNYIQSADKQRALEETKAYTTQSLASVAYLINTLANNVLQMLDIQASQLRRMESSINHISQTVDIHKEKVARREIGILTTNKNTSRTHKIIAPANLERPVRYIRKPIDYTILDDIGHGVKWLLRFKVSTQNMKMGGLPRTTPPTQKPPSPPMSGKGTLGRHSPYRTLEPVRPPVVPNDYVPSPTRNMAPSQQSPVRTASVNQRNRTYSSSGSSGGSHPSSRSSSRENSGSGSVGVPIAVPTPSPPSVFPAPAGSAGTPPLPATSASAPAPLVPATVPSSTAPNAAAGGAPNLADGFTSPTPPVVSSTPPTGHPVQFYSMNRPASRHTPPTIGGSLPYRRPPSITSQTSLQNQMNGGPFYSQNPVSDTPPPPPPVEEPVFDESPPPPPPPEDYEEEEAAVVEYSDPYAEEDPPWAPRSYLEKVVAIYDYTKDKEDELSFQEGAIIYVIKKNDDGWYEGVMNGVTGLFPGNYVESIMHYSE

Variant	effect of a mutation on the interaction
W337R	disrupting interaction strength

Variants of: B2
Conditions: with txlnb_human TXLNB

Variant	effect of a mutation on the interaction
W337R	disrupting interaction strength

Variants of: B2
Conditions: with ndc80_human NDC80, O14777
Chain of ndc80_human NDC80, O14777 (O14777 whole entry): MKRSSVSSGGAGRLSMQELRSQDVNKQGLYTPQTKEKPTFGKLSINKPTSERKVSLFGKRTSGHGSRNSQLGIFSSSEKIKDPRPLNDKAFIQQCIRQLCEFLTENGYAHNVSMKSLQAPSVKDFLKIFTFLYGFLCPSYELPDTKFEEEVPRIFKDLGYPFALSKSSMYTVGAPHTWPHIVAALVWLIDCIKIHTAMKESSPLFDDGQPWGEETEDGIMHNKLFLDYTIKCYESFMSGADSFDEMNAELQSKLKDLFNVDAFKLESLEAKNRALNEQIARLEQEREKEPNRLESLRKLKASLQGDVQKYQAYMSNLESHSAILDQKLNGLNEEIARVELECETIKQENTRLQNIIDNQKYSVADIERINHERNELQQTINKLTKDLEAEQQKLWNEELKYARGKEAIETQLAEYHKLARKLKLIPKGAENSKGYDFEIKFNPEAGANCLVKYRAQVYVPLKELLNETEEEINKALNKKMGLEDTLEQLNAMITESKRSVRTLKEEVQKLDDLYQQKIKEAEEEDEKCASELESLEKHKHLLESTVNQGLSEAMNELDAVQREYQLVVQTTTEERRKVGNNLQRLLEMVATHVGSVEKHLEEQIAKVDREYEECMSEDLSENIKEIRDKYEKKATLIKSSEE

Variant	effect of a mutation on the interaction
W337R	disrupting interaction strength

Variants of: B2
Conditions: with tpm3_human TPM3, P06753

Variant	effect of a mutation on the interaction
W337R	disrupting interaction strength

Variants of: B2
Conditions: with KRT15, P19012
Chain of KRT15, P19012 (P19012 whole entry): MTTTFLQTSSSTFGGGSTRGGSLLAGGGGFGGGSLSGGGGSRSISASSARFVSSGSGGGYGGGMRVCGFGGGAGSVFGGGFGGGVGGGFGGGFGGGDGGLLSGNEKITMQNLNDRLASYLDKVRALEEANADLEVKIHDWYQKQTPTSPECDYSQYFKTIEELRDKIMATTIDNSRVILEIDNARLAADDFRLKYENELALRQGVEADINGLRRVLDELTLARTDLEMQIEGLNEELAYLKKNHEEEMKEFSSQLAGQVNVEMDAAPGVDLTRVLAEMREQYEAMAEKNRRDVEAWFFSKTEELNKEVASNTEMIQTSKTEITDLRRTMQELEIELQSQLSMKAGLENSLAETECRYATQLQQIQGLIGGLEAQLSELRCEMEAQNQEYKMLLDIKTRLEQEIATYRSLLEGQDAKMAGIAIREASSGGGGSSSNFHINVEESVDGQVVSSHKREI

Variant	effect of a mutation on the interaction
W337R	with no effect

Variants of: B2
Conditions: with atg5_human ATG5, Q9H1Y0
Chain of atg5_human ATG5, Q9H1Y0 (Q9H1Y0 whole entry): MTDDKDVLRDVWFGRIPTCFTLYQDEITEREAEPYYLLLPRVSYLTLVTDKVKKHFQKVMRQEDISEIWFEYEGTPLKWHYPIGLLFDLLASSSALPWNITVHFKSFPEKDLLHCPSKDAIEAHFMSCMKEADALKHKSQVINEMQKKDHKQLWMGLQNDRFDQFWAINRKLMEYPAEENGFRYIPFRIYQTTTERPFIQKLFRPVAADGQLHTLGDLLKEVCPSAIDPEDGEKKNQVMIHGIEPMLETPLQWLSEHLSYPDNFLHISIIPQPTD

Variant	effect of a mutation on the interaction
W337R	disrupting interaction strength

Variants of: B2
Conditions: with cc136_human CCDC136, Q96JN2
Chain of cc136_human CCDC136, Q96JN2 (Q96JN2 whole entry): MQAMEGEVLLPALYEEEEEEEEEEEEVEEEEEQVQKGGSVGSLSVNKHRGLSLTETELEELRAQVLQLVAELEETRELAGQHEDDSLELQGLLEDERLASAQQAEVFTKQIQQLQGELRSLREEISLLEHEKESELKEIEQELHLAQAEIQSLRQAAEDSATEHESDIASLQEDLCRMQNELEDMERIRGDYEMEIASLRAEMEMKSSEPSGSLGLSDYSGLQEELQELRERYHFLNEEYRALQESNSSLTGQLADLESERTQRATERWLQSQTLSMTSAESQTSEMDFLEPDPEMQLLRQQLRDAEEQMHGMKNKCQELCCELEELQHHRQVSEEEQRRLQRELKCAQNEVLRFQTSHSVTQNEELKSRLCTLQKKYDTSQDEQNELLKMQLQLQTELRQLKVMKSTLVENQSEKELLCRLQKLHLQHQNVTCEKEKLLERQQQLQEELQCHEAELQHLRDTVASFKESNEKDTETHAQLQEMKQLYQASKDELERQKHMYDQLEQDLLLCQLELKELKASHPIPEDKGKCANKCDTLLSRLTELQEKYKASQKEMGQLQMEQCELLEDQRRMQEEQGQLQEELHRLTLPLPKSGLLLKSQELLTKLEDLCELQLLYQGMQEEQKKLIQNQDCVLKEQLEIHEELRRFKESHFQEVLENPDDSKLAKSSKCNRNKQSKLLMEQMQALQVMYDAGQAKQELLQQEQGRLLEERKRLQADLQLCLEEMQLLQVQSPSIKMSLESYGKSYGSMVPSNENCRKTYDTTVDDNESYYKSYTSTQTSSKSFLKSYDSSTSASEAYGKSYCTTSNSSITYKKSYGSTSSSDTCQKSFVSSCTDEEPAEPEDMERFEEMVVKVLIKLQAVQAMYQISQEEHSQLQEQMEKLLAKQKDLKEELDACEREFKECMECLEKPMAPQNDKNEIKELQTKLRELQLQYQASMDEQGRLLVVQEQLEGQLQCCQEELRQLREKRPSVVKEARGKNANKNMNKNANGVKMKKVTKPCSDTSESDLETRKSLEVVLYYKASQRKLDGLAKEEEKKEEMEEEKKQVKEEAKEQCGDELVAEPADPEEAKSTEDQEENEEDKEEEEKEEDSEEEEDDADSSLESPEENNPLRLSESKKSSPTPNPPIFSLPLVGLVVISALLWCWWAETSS

Variant	effect of a mutation on the interaction
W337R	with no effect

Variants of: B2
Conditions: with nup62_human NUP62, P37198

Variant	effect of a mutation on the interaction
W337R	with no effect

Variants of: B2
Conditions: with tsg10_human TSGA10, Q9BZW7
Chain of tsg10_human TSGA10, Q9BZW7 (Q9BZW7 whole entry): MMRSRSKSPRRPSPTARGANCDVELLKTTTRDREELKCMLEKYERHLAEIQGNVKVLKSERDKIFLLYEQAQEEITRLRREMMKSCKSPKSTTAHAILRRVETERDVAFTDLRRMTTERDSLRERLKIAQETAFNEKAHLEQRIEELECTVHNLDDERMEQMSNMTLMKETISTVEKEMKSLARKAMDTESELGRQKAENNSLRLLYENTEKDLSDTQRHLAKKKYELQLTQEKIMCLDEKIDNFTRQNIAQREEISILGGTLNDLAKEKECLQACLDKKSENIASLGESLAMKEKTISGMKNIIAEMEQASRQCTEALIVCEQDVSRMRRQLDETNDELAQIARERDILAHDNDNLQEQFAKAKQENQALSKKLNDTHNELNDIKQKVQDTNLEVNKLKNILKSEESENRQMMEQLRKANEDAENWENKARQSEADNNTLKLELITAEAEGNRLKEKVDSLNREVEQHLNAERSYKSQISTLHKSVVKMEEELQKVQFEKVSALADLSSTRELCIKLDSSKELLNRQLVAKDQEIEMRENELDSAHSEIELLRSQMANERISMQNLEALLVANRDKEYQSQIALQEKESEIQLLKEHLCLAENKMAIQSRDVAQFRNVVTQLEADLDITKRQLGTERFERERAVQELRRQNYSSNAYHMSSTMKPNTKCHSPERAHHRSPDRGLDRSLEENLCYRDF

Variant	effect of a mutation on the interaction
W337R	disrupting interaction strength

Variants of: B2
Conditions: with anchr_human ZFYVE19, Q96K21

Variant	effect of a mutation on the interaction
W337R	disrupting interaction strength

Variants of: B2
Conditions: with sat1_human SAT1, P21673

Variant	effect of a mutation on the interaction
W337R	disrupting interaction strength

Variants of: B2
Conditions: with ndk7_human NME7, Q9Y5B8

Variant	effect of a mutation on the interaction
W337R	with no effect

Variants of: B2
Conditions: with txlna_human TXLNA

Variant	effect of a mutation on the interaction
W337R	disrupting interaction strength

Variants of: B3
Conditions: with hsbp1_human HSBP1, O75506

Variant	effect of a mutation on the interaction
W337R	disrupting interaction strength
